Earlier results on 1 substance are cited in paper PMC4134560.

The target of this data set is p53 (Homo sapiens) (UniProt P04637). Particulars: cited from earlier work.

Usually Kd stands for the constant that tells how readily two partners part at equilibrium. With p53 (from UniProt P04637), the dissociation constant (Kd) was below 1 µM.
